This experiment addresses T1, purified full-length recombinant mouse USAG-1 (mouse, UniProt Q9CQN4 24-206).
T1 construct: also called purified recombinant mouse USAG-1 protein
T1 sequence (looked up): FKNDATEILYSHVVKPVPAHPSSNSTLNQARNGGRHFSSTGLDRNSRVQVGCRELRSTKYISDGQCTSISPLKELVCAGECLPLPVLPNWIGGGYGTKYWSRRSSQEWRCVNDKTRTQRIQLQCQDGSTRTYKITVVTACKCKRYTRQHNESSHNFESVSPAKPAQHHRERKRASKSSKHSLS
Description: BLI (Octet Red), antibody immobilised, mouse USAG-1 at 10, 30 and 100 nM, global fitting. As to the method: For the antibody obtained in Example 1, affinity (KD values) was determined by using a BLI method based on Octet (registered trademark) Red (manufactured by Pall ForteBio). Specifically, each antibody was immobilized on the biosensor, the purified recombinant mouse USAG-1 protein was added at three different concentrations (10 nM, 30 nM, 100 nM), and binding and dissociation curves were obtained. The affinities were calculated by subjecting the obtained curves to global fitting with an analysis program attached to the Octet device.

B1: mouse anti-USAG-1 neutralizing antibody B48C (antibody, V domains shown)
VH: EVQLQQSGAELVRPGASVKLSCTASGFNIKDDYMHWVKQRPEQGLEWIGWIDPENGDTEYASKFQGKATITADTSSNTAYLQLSSLTSEDTAVYYCITPYYYGSSFSYWYFDVWGTGTTVTVSS
VL: DVLMTQTPLSLPVSLGDQASISCRSSQSIVHSNGNTYLEWYLQKPGQSPKLLIYKVSNRFSGVPDRFSGSGSGTDFTLKISRVEAEDLGVYYCFQGSHVPWTFGGGTKLEIKR
notes: Mouse monoclonal from a hybridoma (USAG-1 KO mouse immunised with rat USAG-1)
Take B1: the Kd worked out at 3.26 nM.

By Kd is commonly meant the concentration at which binding is half-saturated.

These data come from patent US20250136674A1 (KYOTO UNIVERSITY, published 2025).
